Assay results from US8841274B2, “Protein arginine N-methyltransferase-5 method of cancer treatment” (priority 2009, dated 2014).

What was measured:
[1] = target: T1, PRMT5 (Homo sapiens, UniProt O14744); experiment: GST binding assay with U2OS cell lysate, PRMT5 immunoblot; set-up: The indicated GST proteins were incubated with U2OS cell lysate; endogenous in cells; host or cells: U2OS; conditions: GST-E2F-1 proteins incubated with U2OS cell lysate
Experimental: It was then assessed whether E2F-1 could interact with PRMT5 and thereafter the role of each R residue in mediating the interaction. […] The indicated GST proteins were incubated with U2OS cell lysate, and bound proteins immunoblotted using anti-GST (for input GST), DP-1 or PRMT5 antibodies. Binding to DP-1, the major heterodimeric partner for E2F-1 (Stevens and La Thangue 2003), served as a control since it bound equally to each of the E2F-1 proteins.
GST or GST tagged proteins (10 μg each) were incubated with agarose beads and damaged or undamaged U2OS cell lysates for 3 h. Beads were then washed with TNN buffer 3 times. SDS sample buffer was added to beads and samples were analysed by immunoblotting.
Target sequence in this assay (O14744 whole entry): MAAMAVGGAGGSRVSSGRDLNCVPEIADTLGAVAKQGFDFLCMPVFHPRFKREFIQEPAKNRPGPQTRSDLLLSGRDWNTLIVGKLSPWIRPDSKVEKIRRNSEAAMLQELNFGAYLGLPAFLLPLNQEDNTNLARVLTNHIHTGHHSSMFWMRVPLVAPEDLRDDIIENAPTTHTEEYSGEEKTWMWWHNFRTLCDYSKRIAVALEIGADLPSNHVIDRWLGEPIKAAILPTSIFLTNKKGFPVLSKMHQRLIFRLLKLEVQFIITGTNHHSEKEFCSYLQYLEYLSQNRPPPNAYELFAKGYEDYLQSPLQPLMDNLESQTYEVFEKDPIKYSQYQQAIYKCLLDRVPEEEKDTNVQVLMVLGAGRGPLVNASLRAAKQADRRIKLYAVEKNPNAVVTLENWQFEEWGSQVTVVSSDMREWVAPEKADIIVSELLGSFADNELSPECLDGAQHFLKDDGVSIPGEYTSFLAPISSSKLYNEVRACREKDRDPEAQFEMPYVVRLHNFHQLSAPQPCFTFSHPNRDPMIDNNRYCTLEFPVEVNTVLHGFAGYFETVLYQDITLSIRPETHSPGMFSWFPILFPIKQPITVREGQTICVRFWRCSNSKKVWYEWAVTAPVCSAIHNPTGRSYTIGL

[2] = target: T1, PRMT5; experiment: In vitro methyltransferase assay of E2F-1 proteins; assay type: biochemical; set-up: made in house; host or cells: U2OS cells (transient transfection, anti-Flag immunoprecipitation, elution); conditions: about 1 μg protein, 3H labeled SAM; mutants compared with wild-type E2F-1
Experimental: To assess whether the RGRGR motif was a direct target for PRMT5 methylation, a series of mutant derivatives of E2F-1 were made in which each arginine (R) residue was substituted with a lysine residue (K; FIG. 1a), and the ability of the mutant derivative to be methylated in vitro then assessed. […] In FIG. 1b(i) each of the indicated proteins (about 1 μg) was used in the methylation reaction. In vitro methylated samples were analysed by SDS-PAGE as described below. E2F-1 is indicated. In FIG. 1b(ii) samples in FIG. 1b(i) were counted (3H cpm as indicated). Histones treated with PRMT5 served as the positive control. The data shown provide one example taken from two different experiments.
Flag-PRMT5 plasmid was transfected into U2OS cells for 48 h. Cells were lysed and Flag-PRMT5 was immunoprecipitated with agarose beads and then eluted. The elute was mixed with recombinant substrates (GST fusion proteins or histones) in methylation reaction buffer (50 mM Tris, 0.1 mM EDTA, 50 mM NaCl) with ^3H labeled SAM (as —CH3 group donor) to a volume of 40 μl and incubated at 30° C. for 90 min. Half of the reactions were then spotted onto p81 membrane circles (Whatman) and air dried. The membranes were then washed three times, 5 min each in 50 ml of wash buffer (46 mM NaHCO3, 4 mM Na2CO3, pH 9.2). After washing briefly with acetone, membranes were air dried, placed in scintillation vials, immersed in scintillation fluid (Beckman Coulter) and disintegrations per minute (DPM) measured in a scintillation counter. The other half of the reactions were run on SDS-PAGE gel and used to detect ^3H auto-radioisotope/methylation signal.
Target sequence in this assay (O14744 whole entry): as above
Target sequence in this assay (Q9BQA1 whole entry partner): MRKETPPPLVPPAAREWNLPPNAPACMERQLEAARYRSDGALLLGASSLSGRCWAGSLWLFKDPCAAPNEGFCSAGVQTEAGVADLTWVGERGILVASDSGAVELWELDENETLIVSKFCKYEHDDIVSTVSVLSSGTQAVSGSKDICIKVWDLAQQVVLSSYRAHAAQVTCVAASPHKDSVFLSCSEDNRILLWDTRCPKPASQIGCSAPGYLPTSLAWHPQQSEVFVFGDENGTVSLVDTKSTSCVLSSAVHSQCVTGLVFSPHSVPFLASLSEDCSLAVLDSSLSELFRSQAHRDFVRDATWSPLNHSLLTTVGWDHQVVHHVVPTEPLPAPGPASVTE

In the case of “KKK: methylation-defective E2F-1 protein containing the mutations R109K, R111K and R113K”, the “binding to PRMT5” value [1] is reported as “completely devoid of PRMT5 binding” and the “in vitro methylation by PRMT5” value [2] is reported as “could not be methylated by PRMT5”.
